“Also recorded” adds a separate entry of the source. Where two headings read alike, the source gives them in different places.
Tests used:
[1] = test system: Lewis rats with adjuvant-induced arthritis; settings: rat, in vivo
[2] = test system: Balb/C mice with TNBS colitis; assay type: in vivo, mouse; settings: for TNBS-induced weight loss: Example 15, 8 mg/kg after sensitization and on day 1, day 3, PBS treated animals 15%, FIG. 24
Method: Balb/C mice were sensitized with 160 μL of the haptenizing agent TNBS (Sigma-Aldrich, St. Louis, Mo.) at a concentration of 2.5% in 50% ethanol by skin painting. A week later, 120 μl of 1% TNBS in 50% ethanol was administered intrarectally via a 3.5-French catheter. Mice were sacrificed 3 days after intrarectal TNBS administration. Animals were weighed at the time of sensitization, intrarectal administration and every day following such until sacrifice. Clinical assessment was carried out by evaluating weight loss and histopathology of the colon tissue post mortem.
Tissues were fixed in phosphate buffered saline containing 4% formalin and embedded in paraffin. Sections (5 μm) were stained with haematoxylin and eosin. The degree of inflammation was assessed by a blinded pathologist using the following scoring system from 0-4: 0, no signs of inflammation; 1, low level of leucocyte infiltration; 2, moderate level of leucocyte infiltration; 3, high level of leucocyte infiltration, high vascular density, thickening of bowel wall; 4, transmural infiltrations, loss of goblet cells, high vascular density, strong bowel wall thickening, edema.
Twenty Balb/C mice were sensitized via TNBS skin-painting (designated day −7), followed by intrarectal administration of TNBS a week later (designated day 0). The humanized VH2/VK3 antibody (200 μg) was administered at three time points (−6, −2, +1) via i.p. injection to treated animals which were compared with untreated control animals. All the animals were weighed at the time of sensitization, intrarectal administration and every day following such. The animals were sacrificed three days following intrarectal administration (designated +3) following significant weight loss (>5%) in the control group and the colon tissue was removed and sent for histopathological analysis.
Balb/C mice were sensitized via TNBS skin-painting (Day −7), followed by intrarectal administration of TNBS a week later (designated as day 0). The VH2/VK3 variant (8 mg/kg), Rituximab (8 mg/kg) or PBS, were administered following sensitization and on day 1 following intrarectal induction. The mice were weighed at the time of sensitization, intrarectal administration and every day following such. The animals were sacrificed 3 days following intrarectal administration (Day 3) following significant weight loss in the control groups.

human PBMC = assay type: cell-based
[3] = target: T1, adenylyl cyclase-associated protein 1 (CAP1) (Homo sapiens, UniProt Q01518); test: Western blot on over-expressed His-tagged CAP1; assay type: binding; settings: control His CREB; FIG. 13
T1 construct: made in house; host or cells: E. coli BL21 (modified pET22b vector; cDNA from THP-1 cells)
T1 sequence (Q01518 whole entry): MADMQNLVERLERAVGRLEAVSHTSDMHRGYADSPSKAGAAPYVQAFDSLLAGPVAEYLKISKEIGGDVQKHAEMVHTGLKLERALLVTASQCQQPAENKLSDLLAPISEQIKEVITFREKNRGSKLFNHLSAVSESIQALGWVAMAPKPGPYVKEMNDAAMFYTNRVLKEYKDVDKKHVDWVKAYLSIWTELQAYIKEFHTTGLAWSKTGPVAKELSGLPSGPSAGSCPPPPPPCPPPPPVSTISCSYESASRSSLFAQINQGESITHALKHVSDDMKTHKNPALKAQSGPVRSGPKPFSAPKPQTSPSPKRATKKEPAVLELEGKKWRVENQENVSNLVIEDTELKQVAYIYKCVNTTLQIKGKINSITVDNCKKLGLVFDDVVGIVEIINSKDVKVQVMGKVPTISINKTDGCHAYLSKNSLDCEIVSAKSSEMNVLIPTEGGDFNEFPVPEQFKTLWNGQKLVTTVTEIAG

[4] = test system: human macrophages (CD14+ cells); assay type: cell-based; settings: FITC conjugated, 10 μg; double stained with anti-CD14; FIGS. 12, 16
[5] = test system: PBMC collected from rheumatoid arthritis (RA) patients; assay type: cell-based, human; settings: 200 μg, 48 hours, two RA patients, vs without antibody; FIG. 21
Method: PBMC were collected from two RA patients and incubated for 48 hours with or without 200 μg of the humanized anti-peptide-6 antibody (VH2/VK3). Supernatants were then assayed for secreted IL-10 content.

[6] = test system: DBA/1 mice with collagen-induced arthritis; assay type: in vivo, mouse; settings: single dose i.p. 200 μg upon clinical signs; vs TBS; FIG. 20
Method: Nine week old male DBA/1 mice (Harlan Laboratories, Israel) were injected s.c. at the base of the tail with 200 μg collagen type II emulsified in CFA (Difco). Three weeks later mice were boosted s.c. with the same concentration of collagen II. The severity of arthritis was assessed daily by measuring feet diameter of hind and fore paws by caliper by a blinded observer. As controls, the inventors measured 4 mice of about the same age that were not injected with collagen. The mean of the healthy mice served as a “cut-off” measurement. Starting from day 5 after the boost injection, every mouse with a score value above the average of the healthy mice (in one paw or more) was assigned to one of the treatment groups.
The inventors next examined the in vivo effects of the humanized VH2/VK3 anti-peptide-6 antibody in an additional experimental model of arthritis, the Collagen-Induced Arthritis (CIA) model in mice. Male DBA/1 mice were immunized on day 0 with collagen type II emulsified in CFA to induce arthritis, and a boost dose given on day 21.85% of the mice developed CIA within 2.5 weeks after the boost injection. Upon clinical signs of disease, the mice were treated with a single dose of either the humanized VH2/VK3 anti-peptide-6 antibody (i.p. 200 μg) or tris buffered saline (TBS).

[7] = 11-day period, FIG. 25
Balb/C mice = settings: mouse, in vivo
[8] = test system: Lewis rats with adjuvant-induced arthritis; assay type: in vivo, rat; settings: IP 1 mg/kg days 11 and 15, serum day 19, FIG. 19
Method: Evaluation of cytokine levels in cell culture or in the serum of animals was carried out utilizing specific kits from R&D SYSTEMS, Minneapolis Minn. USA (according to the manufacturer's instructions).
The inventors furthermore evaluated the in vivo effects of the humanized anti-peptide-6 antibody on the induction of IL-10 secretion in the serum of animals having established arthritis. Lewis rats were immunized with MT/CFA on day 0. Rats were treated on days 11 and 15 with humanized VH2/VK3 (IP 1 mg/kg), or with PBS for comparison. Severity of arthritis was evaluated by clinical scoring, and animals were sacrificed on day 19 and serum levels of various cytokines were measured by ELISA (R&D systems). Serum of healthy untreated animals served as a control.

Rituximab
pathology findings of joints [1]: marked fibrosis and formation of reactive periosteal bone | severity of AA (arthritis score) ([1]; ip, 5 mg/kg): no effect on AA | TNBS-induced weight loss [2]: 14%

B1: VH2/VK3: humanized anti-peptide-6 IgG1; heavy chain variable region SEQ ID NO: 21, light chain variable region SEQ ID NO: 26 (antibody, V domains shown)
VH: QVTLKESGPALVKPTQTLTLTCSFSGFSLSTSNMGVGWIRQPAGKGLEWLLHILWNDSKYYNPALKSRLTISKDTYKNQVVLTMTNMDPVDTATYYCARMGGYYGNYGYYAMDYWGQGTLVTVSS
VL: QIVLTQSPATLSLSPGERATLSCTASSSVSSSYLHWYQQKPGKAPKLWIYSTSNLASGVPSRFSGSGSGTDYTLTISSLQPEDFATYYCHQYHRSPPTFGQGTKLEIK
modifications: IgG1 constant regions; VH2 amino acid sequence; VK3 amino acid sequence
severity of established AA (arthritis score) ([1]; ip, 2.5 mg/kg): effective in significantly suppressing the severity of established AA | IL-10 induction in PBMC cultures (human PBMC): best IL-10 induction; also recorded: induced higher IL-10 expression than the other variants | IL-10 secreted from human PBMC (human PBMC): significant increase in IL-10 secreted | inflammatory response in the colon (microscopic disease score, histology) ([2]; Example 14, 200 μg i.p. at days -6, -2, +1, sacrifice day 3, p<0.05 vs control, FIG. 23): Minimal inflammatory response | weight loss in TNBS colitis ([2]; Example 14, 200 μg i.p. at days -6, -2, +1, vs untreated control, FIG. 22): effective in suppressing the weight loss | TNBS-induced weight loss [2]: 3.5% | recognition of His-tagged CAP1 (Western blot) [3]: recognized the His-tagged CAP1 protein specifically | binding to CD14 positive cells (FACS) [4]: binds to most of the CD14 positive cells | IL-10 secreted by RA patients' PBMC [5]: robust increase in the amount of IL-10 secreted | severity of established CIA (feet diameter) [6]: effective in significantly suppressing the severity of established CIA | serum half-life ([7]; 500 μg i.p. on day 0): approximately 10 days | serum half-life ([7]; 500 μg s.c. on day 0): approximately 10 days | pathological findings (heart, liver, lung, spleen, kidney) (Balb/C mice): no significant pathological findings | serum IL-1 levels ([8]; 1 rat per group): remain negligible in all groups | serum IL-17 levels ([8]; 1 rat per group): remain negligible in all groups | serum TNFα levels ([8]; 1 rat per group): remain negligible in all groups | serum IL-4 levels [8]: remain negligible in all groups | serum IFN-γ levels ([8]; vs PBS): reduction | serum IL-6 levels ([8]; vs PBS): reduction | serum IL-10 levels ([8]; vs PBS): clear induction of IL-10 levels

From patent US8680241B2 (priority 2009, dated 2014)
